Measured values taken from publication PMC9482650, “Quantitative fragmentomics allow affinity mapping of interactomes” (Nature Communications, 2022).

Assays:
Assay in all cases: holdup assay
Design in all cases: key: below the threshold = too weak to quantify, mostly under pKd 3.1 to 4
Conditions in all cases: plain residues with an end cap or a label only (N-terminal biotin on a linker: ado-ado)
[1] = biological target: GORASP1, Q9BQQ3
[2] = biological target: Inadl_10, Q8NI35
[3] = biological target: T1, NHERF3_3, Q5T2W1
T1 sequence (Q5T2W1 238-333, limits assumed, looked up): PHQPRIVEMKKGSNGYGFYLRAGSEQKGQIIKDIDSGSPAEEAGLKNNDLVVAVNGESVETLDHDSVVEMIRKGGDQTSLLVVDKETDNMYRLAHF

[4] = biological target: Inadl_6, Q8NI35
Chain of Inadl_6, Q8NI35 (Q8NI35 1058-1167): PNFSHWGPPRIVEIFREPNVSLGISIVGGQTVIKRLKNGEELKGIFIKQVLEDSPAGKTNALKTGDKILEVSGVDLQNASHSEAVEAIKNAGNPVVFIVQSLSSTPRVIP

[5] = biological target: T2, SNTA1, Q13424
T2 sequence (Q13424 82-180, limits assumed, looked up): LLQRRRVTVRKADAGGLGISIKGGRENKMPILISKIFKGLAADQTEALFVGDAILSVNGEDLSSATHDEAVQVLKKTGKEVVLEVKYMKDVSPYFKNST

[6] = biological target: T3, SNTB1, Q13884
T3 sequence (Q13884 107-205, limits assumed, looked up): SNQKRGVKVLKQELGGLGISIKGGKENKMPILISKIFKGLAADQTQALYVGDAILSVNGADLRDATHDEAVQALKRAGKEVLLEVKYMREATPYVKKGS

[7] = biological target: T4, GRIP1_7, Q9Y3R0
T4 sequence (Q9Y3R0 999-1096, limits assumed, looked up): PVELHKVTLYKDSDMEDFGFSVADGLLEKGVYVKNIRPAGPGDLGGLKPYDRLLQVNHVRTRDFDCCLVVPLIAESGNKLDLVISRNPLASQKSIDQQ

[8] = biological target: T5, HTRA3, P83110
T5 sequence (P83110 354-453, limits assumed, looked up): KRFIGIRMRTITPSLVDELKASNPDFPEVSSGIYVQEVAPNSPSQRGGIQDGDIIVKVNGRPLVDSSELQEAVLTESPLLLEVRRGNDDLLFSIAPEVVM

[9] = biological target: T6, GRIP1_4, Q9Y3R0
T6 sequence (Q9Y3R0 467-571, limits assumed, looked up): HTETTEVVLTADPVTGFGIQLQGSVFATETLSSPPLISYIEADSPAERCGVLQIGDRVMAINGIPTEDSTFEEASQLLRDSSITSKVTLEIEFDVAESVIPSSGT

[10] = biological target: SNX27, Q96L92
[11] = biological target: SCRIB_1, Q14160
Chain of SCRIB_1, Q14160 (Q14160 718-814): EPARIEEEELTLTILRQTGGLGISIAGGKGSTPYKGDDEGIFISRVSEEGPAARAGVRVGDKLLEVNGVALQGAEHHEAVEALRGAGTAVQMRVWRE

[12] = biological target: T7, CARD11, Q9BXL7
T7 sequence (Q9BXL7 662-765, limits assumed, looked up): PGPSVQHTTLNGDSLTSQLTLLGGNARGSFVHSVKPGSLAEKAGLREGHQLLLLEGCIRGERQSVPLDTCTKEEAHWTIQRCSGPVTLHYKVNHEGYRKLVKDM

[13] = biological target: Inadl_2, Q8NI35
Chain of Inadl_2, Q8NI35 (Q8NI35 238-335): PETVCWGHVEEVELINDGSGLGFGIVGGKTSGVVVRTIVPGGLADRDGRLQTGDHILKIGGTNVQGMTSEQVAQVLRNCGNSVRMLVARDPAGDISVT

[14] = biological target: GRIP2_6, Q9C0E4
Chain of GRIP2_6, Q9C0E4 (Q9C0E4 648-740): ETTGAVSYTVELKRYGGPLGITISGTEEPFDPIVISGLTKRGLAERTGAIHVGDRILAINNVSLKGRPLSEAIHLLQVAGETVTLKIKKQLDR

[15] = biological target: MAGI3_2, Q5TCQ9
Chain of MAGI3_2, Q5TCQ9 (Q5TCQ9 398-503): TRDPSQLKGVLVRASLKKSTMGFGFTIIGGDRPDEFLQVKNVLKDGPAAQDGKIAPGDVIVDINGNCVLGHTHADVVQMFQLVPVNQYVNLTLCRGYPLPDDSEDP

[16] = biological target: T8, LRRC7, Q96NW7
T8 sequence (Q96NW7 1440-1537, limits assumed, looked up): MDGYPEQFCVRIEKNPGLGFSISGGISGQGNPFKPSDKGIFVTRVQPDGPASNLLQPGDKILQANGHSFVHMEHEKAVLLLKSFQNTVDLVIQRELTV

[17] = biological target: DLG1_3, Q12959
Chain of DLG1_3, Q12959 (Q12959 457-571): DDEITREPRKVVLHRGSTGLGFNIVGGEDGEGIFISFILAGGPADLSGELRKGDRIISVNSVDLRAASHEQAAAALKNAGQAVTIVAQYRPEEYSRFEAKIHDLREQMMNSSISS

[18] = biological target: FRMPD2_3, Q68DX3
Chain of FRMPD2_3, Q68DX3 (Q68DX3 1073-1166): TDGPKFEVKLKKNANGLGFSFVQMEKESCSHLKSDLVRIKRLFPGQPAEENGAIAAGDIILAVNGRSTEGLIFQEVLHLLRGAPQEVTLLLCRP

[19] = biological target: GOPC, Q9HD26
[20] = biological target: T9, RHPN1, Q8TCX5
T9 sequence (Q8TCX5 508-602, limits assumed, looked up): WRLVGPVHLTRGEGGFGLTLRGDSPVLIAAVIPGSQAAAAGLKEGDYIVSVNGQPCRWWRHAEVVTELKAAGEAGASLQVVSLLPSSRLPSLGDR

[21] = biological target: T10, TIAM2, Q8IVF5
T10 sequence (Q8IVF5 885-986, limits assumed, looked up): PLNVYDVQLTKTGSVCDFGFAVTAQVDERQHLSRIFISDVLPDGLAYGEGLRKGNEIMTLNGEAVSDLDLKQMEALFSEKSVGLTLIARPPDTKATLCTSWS

[22] = biological target: IL16_3, Q14005
Chain of IL16_3, Q14005 (Q14005 1107-1207): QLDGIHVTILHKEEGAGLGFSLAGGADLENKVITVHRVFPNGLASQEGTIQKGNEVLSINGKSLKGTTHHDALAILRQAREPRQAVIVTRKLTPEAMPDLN

[23] = biological target: DLG2_3, Q15700
[24] = biological target: T11, DFNB31_3, Q9P202
T11 sequence (Q9P202 811-907, limits assumed, looked up): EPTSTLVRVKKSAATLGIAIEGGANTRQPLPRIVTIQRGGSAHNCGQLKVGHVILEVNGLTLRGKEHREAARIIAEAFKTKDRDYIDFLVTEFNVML

[25] = biological target: GRASP, Q7Z6J2
Chain of GRASP, Q7Z6J2 (Q7Z6J2 96-193): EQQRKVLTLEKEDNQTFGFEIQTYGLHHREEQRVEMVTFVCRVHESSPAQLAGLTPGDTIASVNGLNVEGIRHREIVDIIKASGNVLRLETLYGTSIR

[26] = biological target: GRIP2_4, Q9C0E4
Chain of GRIP2_4, Q9C0E4 (Q9C0E4 446-548): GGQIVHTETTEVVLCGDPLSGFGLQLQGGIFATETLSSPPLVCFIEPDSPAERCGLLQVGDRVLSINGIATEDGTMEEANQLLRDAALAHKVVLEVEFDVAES

Chain of Inadl_10, Q8NI35 (Q8NI35 1673-1763): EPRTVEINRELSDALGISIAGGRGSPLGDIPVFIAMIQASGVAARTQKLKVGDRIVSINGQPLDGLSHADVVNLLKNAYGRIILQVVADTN
Chain of GORASP1, Q9BQQ3 (Q9BQQ3 1-208): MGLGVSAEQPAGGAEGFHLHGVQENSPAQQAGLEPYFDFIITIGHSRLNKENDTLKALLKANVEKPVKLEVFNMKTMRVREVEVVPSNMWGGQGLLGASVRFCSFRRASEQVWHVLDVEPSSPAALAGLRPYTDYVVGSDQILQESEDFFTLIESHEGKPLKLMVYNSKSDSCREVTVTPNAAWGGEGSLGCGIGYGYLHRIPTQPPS

| Binder | pKd [1] | pKd [2] | pKd [3] | pKd [4] | pKd [5] | pKd [6] | pKd [7] | pKd [8] | pKd [9] | pKd [10] | pKd [11] | pKd [12] | pKd [13] | pKd [14] | pKd [15] | pKd [16] | pKd [17] | pKd [18] | pKd [19] | pKd [20] | further results |
| --- | --- | --- | --- | --- | --- | --- | --- | --- | --- | --- | --- | --- | --- | --- | --- | --- | --- | --- | --- | --- | --- |
| LKDDELKTKL [SLCO1A2, P46721] | below the threshold | below the threshold | 4.17 | below the threshold | below the threshold | below the threshold | below the threshold | below the threshold | below the threshold | 3.8 | below the threshold | below the threshold | below the threshold | below the threshold | below the threshold | below the threshold | below the threshold | below the threshold | 3.94 | 3.82 | pKd [21]: below the threshold; pKd [22]: below the threshold; pKd [23]: below the threshold; pKd [24]: below the threshold; pKd [25]: 4.37; pKd [26]: below the threshold |
| DRIQSCLSDA [SBF1, O95248] | below the threshold | below the threshold | below the threshold | below the threshold | below the threshold | below the threshold | below the threshold | 3.57 | below the threshold | below the threshold | below the threshold | below the threshold | below the threshold | below the threshold | below the threshold | below the threshold | below the threshold | below the threshold | below the threshold | below the threshold | pKd [21]: 4.03; pKd [22]: below the threshold; pKd [23]: 3.78; pKd [24]: 3.74; pKd [25]: below the threshold; pKd [26]: below the threshold |
| PSVGSKKTVL [REELD1, A0A1B0GV85] | below the threshold | below the threshold | below the threshold | below the threshold | 3.73 | 3.56 | below the threshold | below the threshold | below the threshold | 3.71 | below the threshold | below the threshold | below the threshold | below the threshold | 3.51 | below the threshold | below the threshold | below the threshold | 4.26 | 3.92 | pKd [21]: below the threshold; pKd [22]: below the threshold; pKd [23]: below the threshold; pKd [24]: below the threshold; pKd [25]: 4.43; pKd [26]: below the threshold |
| SFISKKEWYV [NECTIN1, Q15223] | 4.44 | below the threshold | below the threshold | below the threshold | below the threshold | below the threshold | 5.06 | 4.83 | below the threshold | below the threshold | below the threshold | below the threshold | 4.8 | 4.3 | 5.55 | below the threshold | below the threshold | 4.31 | below the threshold | below the threshold | pKd [21]: 5.09; pKd [22]: below the threshold; pKd [23]: 3.63; pKd [24]: below the threshold; pKd [25]: below the threshold; pKd [26]: below the threshold |
| AEASVACSLC [PTGIR, P43119] | below the threshold | below the threshold | below the threshold | below the threshold | below the threshold | below the threshold | below the threshold | 4.15 | below the threshold | 4.4 | below the threshold | below the threshold | below the threshold | below the threshold | below the threshold | below the threshold | below the threshold | below the threshold | below the threshold | below the threshold | pKd [21]: 3.75; pKd [22]: below the threshold; pKd [23]: 3.49; pKd [24]: 3.75; pKd [25]: 4.43; pKd [26]: below the threshold |
